Laboratory results: CN108503707A (ZHEJIANG ACAD MEDICAL SCIENCES, dated 2018)

Target: T1, 弓形虫重组SAG1蛋白(表面膜抗原1) (Toxoplasma gondii, UniProt P13664 48-306, limits assumed)
T1 construct: The vector tag (pET28a, Ni-NTA purified) is not described; In the BLI programme the loading step is called biotinylated antigen, but the sensor is APS; also called SAG1-m; SAG1重组抗原
T1 sequence (looked up): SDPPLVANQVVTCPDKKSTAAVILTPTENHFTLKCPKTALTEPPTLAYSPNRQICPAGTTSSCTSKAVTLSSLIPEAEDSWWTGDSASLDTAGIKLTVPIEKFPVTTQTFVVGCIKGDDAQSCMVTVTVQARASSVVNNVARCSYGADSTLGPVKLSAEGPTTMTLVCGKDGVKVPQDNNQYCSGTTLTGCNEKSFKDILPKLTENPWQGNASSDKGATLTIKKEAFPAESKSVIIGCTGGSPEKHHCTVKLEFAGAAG
Assay: BLI (ForteBio Octet Red), SAG1 on APS sensor, nanobody at 6.25-100 nM

B1: 1号克隆株抗SAG1纳米抗体 (VHH)
VHH: HVQLVESGGGSVQAGGSLKLSCTASGYTSNNNCMAWYRQAPGKEPEGVAGIDSEGTTRYADSVKGRFTISKDNAKNTLYLQMNSLKPEDTGMYYCGAGPDRPARCQYDVWGQGTQVTVSS
notes: Tags or fusion parts from the vectors are not described; also called SAG1-1; 一号克隆株抗SAG1纳米抗体
Kd: 1.66 nM
